According to patent US20190002562A1 (INTERVET, published 2019):
Substitutions are numbered along the chain they refer to. Values belong to the binder of their own block, whether it stands above or below them.

Legend:
canine PD-1 [1] = biological target: T1, canine PD-1 (canine); assay: SPR (Biacore T200), canine PD-1 amine-coupled, antibody as analyte, 1:1 fit
T1 construct: also called canine PD-1 antigen; cPD-1
T1 chain: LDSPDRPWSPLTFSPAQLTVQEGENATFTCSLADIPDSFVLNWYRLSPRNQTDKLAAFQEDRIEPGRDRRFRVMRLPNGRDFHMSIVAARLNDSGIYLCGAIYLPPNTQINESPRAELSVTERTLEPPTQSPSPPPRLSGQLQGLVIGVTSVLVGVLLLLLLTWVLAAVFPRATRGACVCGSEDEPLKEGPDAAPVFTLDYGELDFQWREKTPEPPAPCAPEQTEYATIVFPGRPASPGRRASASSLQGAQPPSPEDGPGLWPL

[2] = biological target: T2, recombinant human CD64 protein (R&D systems) (human, UniProt P12314 16-288); assay: ELISA: antibody titrated on coated PD-1 HIS, then recombinant human CD64 at 1 ug/mL, biotinylated anti-CD64 and streptavidin-HRP
T2 construct: Bought protein; also called FcγRI; FcRγI
Experimental: (§1) Binding to FcRγI is a measure of the ability of an antibody to mediate ADCC. In order to assess this property for the caninized antibodies an assay to measure binding of caninized antibodies to FcγRI was conducted as follows: Coat 96-well plates with 100 μl per well of 2.5 μg/mL PD-1 HIS. Incubate at 2-7° C. overnight. Equilibrate the plates to room temp for 15 minutes. Wash plates 3× with phosphate buffered saline containing 0.05% Tween® 20 (PBST) and then block the wells using 200 μL/well of 5% NFDM (Non Fat Dried Milk). Incubate for 60 minutes at 36-38° C. Wash 3× with PBST. Make 2-fold dilution of antibodies starting at 1 μg/mL in 5% NFDM. Add 100 μL/well of diluted antibodies. Incubate for 60 minutes at 36-38° C. Wash 6× with PBST. Add 100 μL/well of recombinant human CD64 protein (R&D systems) diluted to 1 μg/mL. Incubate for 60 minutes at 36-38° C. Wash 6× with PBST. Add 100 μL/well biotinylated-anti-CD64 antibody (R&D systems) diluted to 1:3000. Incubate for 60 minutes at 36-38° C. Wash 6× with PBST. Add 100 μL/well Streptavidin-HRP antibody (R&D systems) diluted to 1:7500. Incubate for 60 minutes at 36-38° C. Wash 6× with PBST. Add 100 μL/well TMB substrate. Incubate for 10 minutes at 15-30° C. Read plates using ELISA plate reader at 450-540 nm.

[3] = biological target: T3, HIS-tagged canine PD-1 ECD protein (canine); assay: ELISA on the extracellular domain of canine PD-1
T3 construct: also called PD-1 HIS; canine PD-1 ECD-HIS tagged protein; not shown: HIS tag
T3 chain: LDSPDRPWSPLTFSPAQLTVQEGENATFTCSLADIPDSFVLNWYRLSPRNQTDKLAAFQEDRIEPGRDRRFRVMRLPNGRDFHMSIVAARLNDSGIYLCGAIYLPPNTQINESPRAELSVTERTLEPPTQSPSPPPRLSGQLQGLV

[4] = biological target: T2, recombinant human CD64 protein (R&D …); assay: ELISA: antibody captured on PD-1 HIS, recombinant human CD64 added
Experimental: as §1

canine PD-1 [5] = biological target: T1, canine PD-1; assay: SPR (Biacore T200), canine PD-1 amine-coupled, antibody as analyte, 1:1 fit; off-rate below the detection limit

T2 sequence (P12314 16-288 limits assumed): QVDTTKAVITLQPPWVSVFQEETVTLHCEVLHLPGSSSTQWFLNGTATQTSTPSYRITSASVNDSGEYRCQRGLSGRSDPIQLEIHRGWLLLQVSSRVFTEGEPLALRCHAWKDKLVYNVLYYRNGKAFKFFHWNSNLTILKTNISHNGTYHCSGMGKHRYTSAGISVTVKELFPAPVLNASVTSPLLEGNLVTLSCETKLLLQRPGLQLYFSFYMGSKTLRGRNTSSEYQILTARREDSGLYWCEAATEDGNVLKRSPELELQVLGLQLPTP

B1: Murine 3B6 (antibody, V domains shown)
VH: QIQLVQSGPELKKPGETVKISCKASGYTFTTYGMSWVKQAPGKGLKWMGWINIYSGIPTYADDFKGRFAFSLETSASTAYLQIDNLKNEDTATYFCARFDGPDYWGQGTTLTVSS
VL: DIVMTQSPSSLAVSVGRKVTMSCKSSQSLLNSVNQKNYLAWYQQKPGQSPKVLVYFASARVSGVPDRFIGSGSGTDFTLAISSVQAEDLTTYFCQQYFSTPLTFGAGTKLELK
Kd (canine PD-1 [1]): 2 nM
koff (canine PD-1 [1]): 3.4e-05 s⁻¹
kon (canine PD-1 [1]): 18000 M⁻¹ s⁻¹

B2: can2H9 VH4/VL3 IgGB (antibody)
heavy: EVQLVQSGGDLVKPGGSVRLSCVASGFNIKNTYMHWVRQAPGKGLQWIGRIAPANVDTKYAPKFQGKATISADTAKNTAYMQLNSLRAEDTAVYYCVLIYYDYDGDIDVWGQGTLVTVSSASTTAPSVFPLAPSCGSTSGSTVALACLVSGYFPEPVTVSWNSGSLTSGVHTFPSVLQSSGLYSLSSMVTVPSSRWPSETFTCNVAHPASKTKVDKPVPKRENGRVPRPPDCPKCPAPEMLGGPSVFIFPPKPKDTLLIARTPEVTCVVVDLDPEDPEVQISWFVDGKQMQTAKTQPREEQFNGTYRVVSVLPIGHQDWLKGKQFTCKVNNKALPSPIERTISKARGQAHQPSVYVLPPSREELSKNTVSLTCLIKDFFPPDIDVEWQSNGQQEPESKYRTTPPQLDEDGSYFLYSKLSVDKSRWQRGDTFICAVMHEALHNHYTQESLSHSPGK
light: DIVMTQTPLSLSVSLGEPASISCHASQNINVWLSWYRQKPGQIPQLLIYKASHLHTGVPDRFSGSGSGTDFTLRISRVEADDAGVYYCQQGQSWPLTFGQGTKVEIKRNDAQPAVYLFQPSPDQLHTGSASVVCLLNSFYPKDINVKWKVDGVIQDTGIQESVTEQDSKDSTYSLSSTLTMSSTEYLSHELYSCEITHKSLPSTLIKSFQRSECQRVD
notes: also called 2H9 VH4 IgGB/VL3; caninized 2H9 with un-modified IgGB Fc
binding result [2]: binds

B3: can2H9 IgGD VH4/VL3 (antibody)
heavy chain: EVQLVQSGGDLVKPGGSVRLSCVASGFNIKNTYMHWVRQAPGKGLQWIGRIAPANVDTKYAPKFQGKATISADTAKNTAYMQLNSLRAEDTAVYYCVLIYYDYDGDIDVWGQGTLVTVSSASTTAPSVFPLAPSCGSTSGSTVALACLVSGYFPEPVTVSWNSGSLTSGVHTFPSVLQSSGLYSLSSTVTVPSSRWPSETFTCNVVHPASNTKVDKPVPKESTCKCISPCPVPESLGGPSVFIFPPKPKDILRITRTPEITCVVLDLGREDPEVQISWFVDGKEVHTAKTQPREQQFNSTYRVVSVLPIEHQDWLTGKEFKCRVNHIGLPSPIERTISKARGQAHQPSVYVLPPSPKELSSSDTVTLTCLIKDFFPPEIDVEWQSNGQPEPESKYHTTAPQLDEDGSYFLYSKLSVDKSRWQQGDTFTCAVMHEALQNHYTDLSLSHSPGK
light chain: B2 light
notes: also called can2H9 VH4 IgGD/VL3
binding result [2]: no binding (tested: log(nM) about 0.83 (1 ug/mL))

B4: can2H9 ADCC (1062) VH4/VL3 (antibody)
heavy: B2 heavy with D271A, N303A
light: B2 light
notes: also called YZZ1062
EC50 (read off the curve) [3]: ~0.3 nM
binding result [4]: no binding

B5: can2H9 ADCC mut-1 VH4/VL3 (antibody)
heavy: B2 heavy with D271A
light: B2 light
notes: also called can2H9VH4 IgGB ADCC (mut-1)/VL3; YZZ1057/Mut-1
binding result [4]: binds

B6: can2H9 ADCC mut-2 VH4/VL3 (antibody)
heavy: B2 heavy with N303A
light: B2 light
notes: also called can2H9 VH4 IgGB ADCC (mut-2)/VL3; YZZ1058/Mut-2
binding result [4]: binds

B7: can2H9 ADCC(1060) VH4/VL3 (antibody)
heavy: B2 heavy with A333G
light: B2 light
notes: also called YZZ1060
binding result [2]: binds

Now from value to binder:

binding result [4]: no binding
B8: can 2H9 IgGB ADCC (1068) VH4/VL3 (antibody)
heavy: B2 heavy with P244A, D271A, N303A, A333G, P335A
light: B2 light
notes: also called can2H9 VH4 IgGB ADCC (1068)/VL3; YZZ1068

binding result [2]: binds
B9: can2H9 ADCC(1059) VH4/VL3 (antibody)
heavy: B2 heavy with P244A
light: B2 light
notes: also called can2H9 VH4 IgGB ADCC(1059)/VL3; YZZ1059

binding result [2]: binds
B10: can2H9 ADCC (1061) VH4/VL3 (antibody)
heavy: B2 heavy with P335A
light: B2 light
notes: also called can2H9 VH4 IgGB ADCC (1061)/VL3; YZZ1061

EC50 (read off the curve) [3]: ~0.1 nM
B11: 3B6 VH3 IgGB / VL3 (antibody, V domains shown)
VH: EVQLVQSGGDLVKPGGSVRLSCVASGYTFTTYGMSWVRQAPGKGLQWMGWINIYSGIPTYADDFKGRFTFSLDTAKNTAYLQLNSLRAEDTAVYYCTRFDGPDYWGQGTLVTVSS
VL: DIVMTQTPLSLSVSPGEPASMSCKSSQSLLNSVNQKNYLAWYRQKPGQSPQVLVYFASARVSGVPDRFIGSGSGTDFTLRISRVEADDLGVYYCQQYFSTPLTFGQGTKLELKR
notes: copies: 2 + 2

kon (canine PD-1 [1]): 23000 M⁻¹ s⁻¹
Kd (canine PD-1 [5]): ≤ 0.2 nM
koff (canine PD-1 [5]): ≤ 5e-06 s⁻¹
B12: Murine 2H9 (antibody, V domains shown)
VH: EVQLQQSVAELVRPGASVKLSCTASGFNIKNTYMHWIKQRPEQGLEWIGRIAPANVDTKYAPKFQGKATITADTSSNTAYMQLSTLTSEDTAIYYCVLIYYDYDGDIDVWGTGTTVTVSS
VL: DIQMNQSPSSLSASLGDTITITCHASQNINVWLSWYQQRPGNIPKLLIYKASHLHTGVPSRFSGSGSGTGFTLTISSLQPEDIATYYCQQGQSWPLTFGAGTKLELK
